Measurements reported in PMC9177745 (Biochemistry, 2022).

Experiments:
[1] = biological target: T1, PhnY (in the 1:1 PhnY/Z system) (uncultured bacterium HF130_AEPn_1, UniProt D0E8I4); assay: steady-state kinetics of the coupled PhnY/Z system; type: biochemical; details: two-enzyme PhnY/Z system; apparent Km of the system
T1 sequence (D0E8I4 1-262): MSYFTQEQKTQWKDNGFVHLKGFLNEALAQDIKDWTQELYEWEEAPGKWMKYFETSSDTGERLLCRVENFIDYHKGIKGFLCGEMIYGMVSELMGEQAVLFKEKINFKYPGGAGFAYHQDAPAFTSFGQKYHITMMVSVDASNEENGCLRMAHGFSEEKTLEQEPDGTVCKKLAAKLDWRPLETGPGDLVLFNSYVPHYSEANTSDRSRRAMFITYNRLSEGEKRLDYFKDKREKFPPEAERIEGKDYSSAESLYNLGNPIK

[2] = substrate: NC[C@H](O)P(=O)(O)O; assay: steady-state kinetics, C-P bond cleavage; type: biochemical, Fonsecaea multimorphosa; details: O2; mixed-valent diiron HD-domain site
[3] = substrate: NCCCP(=O)(O)O; assay: steady-state kinetics, conversion to inorganic phosphate; type: biochemical, Fonsecaea multimorphosa; details: two-step reaction to phosphate; co-substrates presumably as for 2AEP
[4] = substrate: NCCP(=O)(O)O; assay: as above; type: biochemical, Fonsecaea multimorphosa; details: O2, alpha-ketoglutarate, Fe(II), ascorbate; apparent Km of the two-step reaction
[5] = substrate: NC[C@H](O)P(=O)(O)O; assay: steady-state kinetics, C-P bond cleavage; type: biochemical, uncultured bacterium HF130_AEPn_1; details: O2; mixed-valent diiron site

With `NCCCP(=O)(O)O` [3APP] as the molecule, how does the KM [1] read?
The KM was “the PhnY/Z system is also able to act on 3APP”.

B1: PhoF (Fonsecaea multimorphosa CBS 102226) (protein)
chain: MSVPEEQMQFFRKNGYLILRNVLSEEETKDLQRWAQEVHDWPTDANSPWMPYEEINAQGQTVLCRTENYANSHAGLNGLLRGQKLLNLLKQLSGEDMLLFKEKINYKLAGSGGFAPHVDSTAYTHIKNIKHLAILLAVDPSDMSNGGLEVVEGSHEMNVPIGEDNCIEPDWVKQQKWTPVELKAGQVLVFGSYLAHRSGANHSNQDRKALYATYNCAREGDLHDEYYAHRKVVWPPAQLRKKGEEYKVGALVYGFGSPMLSVDAGKQLEFDEEEWKSKPRAAKAASRIIDILNQYGNSDYIGEPISQIEHSLQCAYLAAQNMADPQTVAAALLHDIGQIIPERDAEHILGGAQVRSMRQNSGIGADSRSSDSVGRVSHETLGAQYLLALGFPAKVAELVEAHVPAKRYLCATEKGYYSTLSDASKESLRFQGGPMSPDEVRLWQEGSWADEKANLRRWDDGAKVVGLTVPGLETYRPVLEQVLSS
What does the source list for B1?
Km [2]: 43 ± 23 µM; kcat [2]: 9 ± 2 s⁻¹; Km [3]: 305 ± 263 µM; kcat [3]: 0.57 ± 0.30 s⁻¹; Km [4]: 197 ± 73 µM; kcat [4]: 1.16 ± 0.17 s⁻¹

B2: PhnZ (uncultured bacterium HF130_AEPn_1) (protein)
chain: MSLSNSSKVSVLISLLEKSRDLDYIGEAINQLEHSLQCAYFAQRSGADNEMVLAALLHDLGHYCNDTSFEDMGGYGVWQHEKVGADYLRGLGFSERVACLIEGHVAAKRYLVSSKASYLKNLSDASRKTLEYQGGPMDEGERRLFEEREDFKDCLKIRAWDEKGKQTDLKVPGPEHYRKMMEEHLSENQN
Which results are given for B2?
Km [5]: 107 ± 29 µM; kcat [5]: 15 ± 3 s⁻¹
